The text below walks through data of US20140271478A1 (University of California, published 2014).

In test [1] the target is integrin αβ8 (αvβ8), form in the assay not stated (UniProt P06756). The experiment in a line: affinity determination of scFv; method and antigen form not stated.
Test [2] addresses integrin αβ8 (αvβ8), form in the assay not stated (UniProt P06756 31-992). The description is as above.

Where a chain is given by its changes, count along the chain named. A value given as a limit tells only on which side of the number the result lay.

Chain of integrin αβ8 (αvβ8), form in the assay not stated (UniProt P06756 31-992) (chain, as listed by the source, chain 1 of 2): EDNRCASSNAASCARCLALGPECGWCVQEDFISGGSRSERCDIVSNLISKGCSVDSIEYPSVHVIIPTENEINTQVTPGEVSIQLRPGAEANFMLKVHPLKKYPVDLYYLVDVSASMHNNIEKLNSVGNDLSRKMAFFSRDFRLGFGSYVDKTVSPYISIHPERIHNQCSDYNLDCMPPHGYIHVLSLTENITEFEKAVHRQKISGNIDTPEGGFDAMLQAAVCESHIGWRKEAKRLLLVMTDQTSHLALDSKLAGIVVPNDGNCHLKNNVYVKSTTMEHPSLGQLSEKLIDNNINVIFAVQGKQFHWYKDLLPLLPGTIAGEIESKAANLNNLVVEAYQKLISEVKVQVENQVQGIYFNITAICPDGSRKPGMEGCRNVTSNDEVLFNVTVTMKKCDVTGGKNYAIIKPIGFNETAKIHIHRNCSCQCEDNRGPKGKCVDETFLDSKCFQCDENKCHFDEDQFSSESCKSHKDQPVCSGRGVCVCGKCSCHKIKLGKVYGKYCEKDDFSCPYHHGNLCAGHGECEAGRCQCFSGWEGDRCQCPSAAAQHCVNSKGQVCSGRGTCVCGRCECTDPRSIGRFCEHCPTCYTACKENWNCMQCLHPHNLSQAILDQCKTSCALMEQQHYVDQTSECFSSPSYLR
Chain of integrin αβ8 (αvβ8), form in the assay not stated (UniProt P06756 31-992) (P06756 31-992, chain 2 of 2): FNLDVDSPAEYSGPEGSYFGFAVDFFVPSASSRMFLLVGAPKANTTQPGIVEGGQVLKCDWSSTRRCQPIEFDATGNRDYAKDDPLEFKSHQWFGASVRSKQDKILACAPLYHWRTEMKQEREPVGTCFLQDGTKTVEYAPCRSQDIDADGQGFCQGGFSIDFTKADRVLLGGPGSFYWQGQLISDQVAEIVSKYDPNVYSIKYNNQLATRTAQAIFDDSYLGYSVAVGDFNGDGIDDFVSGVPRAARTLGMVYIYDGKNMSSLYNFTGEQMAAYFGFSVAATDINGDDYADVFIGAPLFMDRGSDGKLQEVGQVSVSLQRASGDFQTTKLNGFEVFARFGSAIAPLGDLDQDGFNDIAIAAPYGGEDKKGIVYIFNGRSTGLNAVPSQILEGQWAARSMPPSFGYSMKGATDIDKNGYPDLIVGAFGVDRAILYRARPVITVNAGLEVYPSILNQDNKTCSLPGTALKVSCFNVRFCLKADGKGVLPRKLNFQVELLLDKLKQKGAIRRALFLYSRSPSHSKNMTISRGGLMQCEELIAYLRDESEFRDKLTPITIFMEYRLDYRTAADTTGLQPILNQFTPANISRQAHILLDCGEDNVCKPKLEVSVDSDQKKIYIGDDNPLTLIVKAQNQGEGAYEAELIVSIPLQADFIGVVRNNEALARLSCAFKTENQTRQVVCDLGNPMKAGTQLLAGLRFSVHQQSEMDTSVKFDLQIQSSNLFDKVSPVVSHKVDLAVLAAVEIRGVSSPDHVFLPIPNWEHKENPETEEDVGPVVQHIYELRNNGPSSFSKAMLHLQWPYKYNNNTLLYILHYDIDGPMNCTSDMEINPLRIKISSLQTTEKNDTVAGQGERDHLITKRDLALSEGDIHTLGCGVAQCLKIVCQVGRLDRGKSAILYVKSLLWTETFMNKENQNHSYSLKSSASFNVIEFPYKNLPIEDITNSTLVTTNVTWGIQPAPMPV
Chain of integrin αβ8 (αvβ8), form in the assay not stated (UniProt P06756) (chain, as listed by the source, chain 1 of 2): as the sequence (chain, as listed by the source, chain 1 of 2) above
Chain of integrin αβ8 (αvβ8), form in the assay not stated (UniProt P06756) (P06756 31-992, chain 2 of 2): as the sequence (P06756 31-992, chain 2 of 2) above

B1: 11E8Mut39 scFv (scFv, V domains shown, part only)
VH: EVQLQQSGPELMKTGASVKISCKATGYTFSTYWIEWVKQRPGHGLEWIGHTLPGSGTTNYNEKFKGRATITADRPSNTSYMQLSSLTYGDSAVFYCATWGWDTYWDHGTSVTVSS
VL: DIEMTQSPSSLSASLGDRVTISCSTSQDVSSYLNWYQQKPDGTVTLLIYYASNLHSGVPSRFSGSGSGTDYSLAISNLEPEDIATYYCQQYSNLPYTFGGGTKLEIKA
modifications: linker not given; order not stated
B1: in test [1], the Kd (usually a measure of binding affinity in units of concentration) was 21.1 nM.

B2: 11E8 scFv (scFv, V domains shown)
VH: B1 VH with T31S, H50D, T51I, I70V, P75S, S79A, F94Y, H107Q
VL: DIVMTQSPSSLSASLGDRVTISCSASQGISNYLNWYQQKPDGTVKLLIYYTSSLHSGVPSRFSGSGSGTDYSLTISNLEPEDIATYYCQQYSNLPYTFGGGTKLEIK
For B2, in test [2], the Kd was above 250 nM.

B3: 11E8Mut94 scFv (scFv, V domains shown, part only)
VH: EVQLQQSGPELMKTGASVKISCKATGYTFSSYWIEWVKQRPGHGLEWIGDILPGSGTTNYNEKFEGRAAITADTSSNTSYMQLSSLTSEDSAVYYCARWGWDSYWGQGTLVTVSS
VL: DIKMTQTPSSLSASLGDRVTISCSASQGISNYLNWYQQKPDGTVKLLIYYTSSLHSGVPSRFSGSGSGTDYSLTISNLEPEDIATYYCQQYSNLPYTFGGGTKLEIKR
modifications: linker not given; order not stated
In test [1], B3 came in with a Kd of 3.2 nM.

B4: 14E5Mut68 scFv (scFv, V domains shown, part only)
VH: B3 VH with P9A, T14P, S31T, V37I, E65K, A69T, I70V, T74R, S79A
VL: B3 VL with T7S, N93E
modifications: linker not given; order not stated
In test [1], B4 registered a dissociation constant Kd of 1.42 nM.

B5: 14E5 scFv (scFv, V domains shown)
VH: B3 VH with P9A, T14P, S31T, V37I, D50H, G56V, T57I, E65K, R67K
VL: B2 VL with V3E, A25T, G28D, N31S, Y32S, K45T, S53N, N93K
Take B5: the Kd in test [2] is 14 nM.

B6: 11E8Mut28 scFv (scFv, V domains shown)
VH: B3 VH with E65K, R67K, M81L
VL: B2 VL with Y91F
On to B6, for which the Kd in test [2] came to 3.52 nM.

B7: 14E5Mut54 scFv (scFv, V domains shown, part only)
VH: B3 VH with P9A, T14P, S31T, Y32N, V37I, D50H, G56V, T57I, E65K, R67K
VL: B3 VL with K3V, S22R
modifications: linker not given; order not stated
Molecule B7 yielded a Kd in test [1] of 2.09 nM.

B8: 14E5Mut42 scFv (scFv, V domains shown)
VH: B3 VH with Q3P, P9A, T14P, S31T, V37I, D50H, G56V, T57I, E65K, R67K
VL: B2 VL with S7T, N93D
Take B8: the Kd in test [2] turned out to be 3.35 nM.

B9: 14E5Mut83 scFv (scFv, V domains shown)
VH: EVQLQQSGAVLMKPGASVKISCKATGYTFSTHWIEWIKQRPGHGLEWIGHILPGSVITNYNEKFKGKAAITADTSSNTSYMQLSSLTSEDSAVYYCARWGWDSYWGQGTLVTVSS
VL: B2 VL with V3L, N93D
B9 came in with a Kd in test [2] of 1.79 nM.

B10: 14E5Mut11 scFv (scFv, V domains shown)
VH: B9 VH with V10E, H32N
VL: B2 VL with V3L, N31K
Take B10: in test [2], the Kd was found to be 3.85 nM.

B11: 14E5Mut95 scFv (scFv, V domains shown)
VH: B9 VH with S7T, V10E, H32Y, A69V
VL: B2 VL with V3E, N93D
On to B11, for which the affinity in test [2], expressed as Kd, was 1.83 nM.

B12: 14E5Mut65 scFv (scFv, V domains shown)
VH: B9 VH with E1Q, V10E, T28S, H32N, E89D
VL: B2 VL with V3K, Y91F
The molecule B12 yielded a Kd in test [2] of 3.04 nM.

B13: 4F1 scFv (scFv, V domains shown)
VH: QVQLQQSGAELVRPGTSVKVSCKASGYAFTNYLIEWVKQRPGQGLEWIGVINPGTGGTNYNKKFKVKATLTADKSSSTAYMQLGGLTFDDSAVYFCAREGNARTYYYAMDYWGQGTSVTVSS
VL: DIEMTQTPASLSASVGETVTITCRASENIYSYLVWYQQKQGKSPQVLVYNAKTLAEGVPSRFSGSGSGTQFSLKINSLQPEDFGSYYCQHHNGTPYTFGGGTKLEIK
In test [2], B13 showed a Kd above 100 nM.

B14: 6B9 scFv (scFv, V domains shown)
VH: QVQLQQSGAELVRPGTSVKVSCKASGYAFTDYLIEWVKQRPGQGLEWIGVINPETGGTNYNAKFKGKATLTADKSSSSAYMQLSSLTSGDSAVYFCAREAGNYIYAMDYWGQGTSVTVSS
VL: B13 VL with E3Q, T7S, E27V, V46L, Y49H, N92H
Molecule B14 showed a Kd in test [2] of 14.8 nM.

B15: 6B9Mut1 scFv (scFv, V domains shown)
VH: B14 VH with K65R
VL: B13 VL with E3V, T7S, E27V, V46L, Y49H, N92H
In the case of B15, in test [2], the Kd stood at 9.34 nM.
